Results: patent publication CN114891108A (SHANGHAI XUNLU BIO TECH CO LTD, dated 2022)

Experiments:
[1] = biological target: T1, Biotinylated Human BCMA/TNFRSF17 Protein, His,Avitag (human, UniProt Q02223 1-54, biotinylated (Avitag)); assay: phage ELISA
T1 construct: Bought recombinant protein; also called Human BCMA-his-Bio; Human-BCMA-his-Bio
T1 sequence (looked up): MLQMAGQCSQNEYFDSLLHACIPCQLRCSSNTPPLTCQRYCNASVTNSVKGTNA

[2] = biological target: T2, Mouse BCMA/TNFRSF17 Protein, His Tag (mouse, UniProt O88472 1-49); assay: phage ELISA
T2 construct: Bought recombinant protein; also called Mouse-BCMA-his; 鼠的BCMA蛋白
T2 chain (looked up): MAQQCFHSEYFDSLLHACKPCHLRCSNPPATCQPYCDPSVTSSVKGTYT

[3] = biological target: T3, BCMA on cells (293CT-BCMA, MM.1S) (UniProt Q02223 1-184, limits assumed); assay: phage flow cytometry on 293CT-BCMA cells
T3 construct: whole, on cells; also called 细胞膜表面天然状态的BCMA
T3 sequence (looked up): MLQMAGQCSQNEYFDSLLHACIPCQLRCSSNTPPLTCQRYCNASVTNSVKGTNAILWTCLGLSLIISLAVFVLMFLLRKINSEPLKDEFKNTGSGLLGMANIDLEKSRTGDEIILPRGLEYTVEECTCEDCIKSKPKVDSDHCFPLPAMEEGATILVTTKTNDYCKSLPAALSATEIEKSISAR

[4] = biological target: T3, BCMA on cells (293CT-BCMA, MM.1S); assay: flow cytometry titration on 293CT-BCMA and MM.1S cells

B1: Clone 41 (scFv)
scFv: QSVLTQPPSVSGAPGQTVTISCTGSSSNIGAGYIVNWYQQLPGTAPKLLIYFTGNRPSGVPGRFSGSRSGTSASLAITRLQAEDEADYYCQSFDRSLGGYVFGTATKVTVLGSRGGGGSGGGGSGGGGSLEMAQLQLQESGPGLVKPSETLSLTCTVSGGSISSSSYYWGWIRQPPGKGLEWIGSISYSGSTYYNPSLKSRVTISVDTSKNQFSLKLSSVTAADTAVYYCARDRGDTILDVWGQGTMVTVSS
notes: The fusion to the phage coat protein is not described; also called 噬菌体单克隆Clone 41; Clone 41单链抗体
binding result [1]: binds
binding result [2]: no binding
binding result [3]: binds

B2: mAb 41 (Fc fusion)
chain: B1 scFv
notes: also called Clone 41 IgG; 抗BCMA IgG (Clone 41); not shown: Human IgG4 Fc
binding result [4]: binds
